Test results: patent US20260116983A1

What was measured:
[1] = biological target: human uPAR displayed on the surface of MDA-MB-231 cells (human) (UniProt Q03405); assay: cell-based or functional assay
[2] = biological target: human uPAR displayed on the surface of MDA-MB-231 cells (human) (UniProt Q03405); assay: flow cytometry (FACS) on MDA-MB-231 cells
[3] = biological target: human uPAR (recombinant protein used in ELISA and BLI) (human) (UniProt Q03405); assay: ELISA, plate-coated human uPAR
Chain of human uPAR (recombinant protein used in ELISA and BLI) (human) (Q03405 23-305 limits assumed): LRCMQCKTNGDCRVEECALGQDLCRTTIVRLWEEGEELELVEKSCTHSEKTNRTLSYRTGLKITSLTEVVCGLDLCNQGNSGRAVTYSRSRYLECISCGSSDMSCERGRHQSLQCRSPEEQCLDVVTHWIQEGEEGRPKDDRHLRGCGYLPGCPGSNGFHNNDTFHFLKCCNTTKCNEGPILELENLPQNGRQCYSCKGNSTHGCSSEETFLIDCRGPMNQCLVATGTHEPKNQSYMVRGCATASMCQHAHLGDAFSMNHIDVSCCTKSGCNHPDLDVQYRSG

Chain of human uPAR displayed on the surface of MDA-MB-231 cells (human) (Q03405 23-305): as the sequence (Q03405 23-305 limits assumed) above

| ADCC NK-92 EC50 [1] [µM] | ADCC NK-92 Max % [1] [%] | ADCC PBMCs EC50 [1] [µM] | ADCC PBMCs Max % [1] [%] | Adhesion blocking EC50 [1] [µM] | Cellular recognition Max % [2] [%] | EC50 [2] [µM] | EC50 [3] [µM] | Binder | ADC Cytotoxicity Max % [1] [%] |
| --- | --- | --- | --- | --- | --- | --- | --- | --- | --- |
| 0.0225 | 33.9 | 0.00865 | 65.5 | 3.5 | 2200 | 0.0166 | 0.00026 | 2G10 (antibody, from another filing, V domains shown) VH: QVQLQQSGPGLVKPSQTLSLTCAISGDSVSSNSAAWNWIRQSPSRGLEWLGRTYYRSKWYNDYAVSVKSRIIINPDTSKNQFSLQLNSVTPEDTAVYYCARDPGGPLDDSFDIWGQGTMVTVSS VL: DVVMTQSPLSLPVTPGEPASISCRSSQSLLRSNGYNYLDWYLQKPGQSPQLLIYLGSIRASGVPDRFSGSGSGTDFTLRISRVEAEDVGVYYCMQALQTPFTFGQGTKLEIKR | 4.9 |
|  |  |  |  | 0.81 | 971 | 0.292 | 0.00028 | 3C6 (antibody, from another filing, V domains shown) VH: QVQLQQWGAGLLKPSETLSLTCAVYGGSFSGYYWSWIRQPPGKGLEWIGEINHSGSTNYNPSLKSRVTISVDTSKNQFSLKLSSVTAADTAVYYCARGRRFGDFDYWGQGTLVTVSS VL: QPVLTQPPSVSVAPGKTARITCGGNNIGSKSVHWYQQKPGQAPVLVVYDDSDRPPGIPERFSGSNSGNTATLTISRVEAGDEADYYCQVWDSSSDHSPFGTGTKVTVLG | 1.42 |
